# B1: Monoclonal antibody 24H8.D3 (antibody, mouse IgG1, V domains shown)
# VH: QVQLKESGPGLVAPSQSLSITCTVSGFSLTSYGVSWVRQPPGKGLEWLGVIWGDGSTNYHSTLISRLSISKDNSKSQVFLKLNSLQTDDTATYYCAKPHPAATGAMDYWGQGTSVTVSS
# VL: DIQMTQTTSSLSASLGDRVTISCRASQDISNHLNWYQQKPDGTIKLLIYYTSKLHSGVPSRFSGSGSGTDYSLTISNLEQEDIATYFCQQGNTLWTFGGGTKLEIK
# notes: Biotin-conjugated when used as capture antibody in the ECL assay; also called ATCC PTA-123090
# B2: Monoclonal antibody 24H8.F3 (antibody, mouse IgG1, V domains shown)
# VH: GPGLVAPSQSLSITCTVSGFSLTSYGVSWVRQPPGKGLEWLGVIWGDGSTNYHSTLISRLSISKDNSKSQVFLKLNSLQTDDTATYYCAKPHPAATGAMDYWGQGTSVTVSS
# VL: TTSSLSASLGDRVTISCRASQDISNHLNWYQQKPDGTIKLLIYYTSKLHSGVPSRFSGSGSGTDYSLTISNLEQEDIATYFCQQGNTLWTFGGGTKLEIK
# notes: Murine IgG1 kappa from hybridoma; also called ATCC PTA-123097
# B3: Monoclonal antibody 1A8.G11.E7 (antibody, mouse IgG1, V domains shown)
# VH: ESGPGLVAPSQSLSITCTVSGFSLTSYGVSWVRQPPGKGLEWLGVIWGDGSTNYHSTLISRLSISKDNSKSQVFLKLNSLQTDDTATYYCAKPHPAATGAMDYWGQGTSVTVSS
# VL: TQTTSSLSASLGDRVTISCRASQDISNHLNWYQQKPDGTVKLLIYYTSRLHSGVPSRFSGSGSGTDYSLTISNLEQEDIATYFCQQGNTLWTFGGGTKLEIK
# notes: Murine IgG1 kappa from hybridoma; also called ATCC PTA-123100
# Assays:
# [1] = target: T1, recombinant purified FRα (ECL assay calibrator) (human, UniProt P15328 25-234); assay: ECL sandwich on FRα, signal to background; capture 1C6.E12.G8; binder = detection Ab
# T1 construct: Calibrator of the ECL sandwich assays; also called FRα calibrator; FRα standard
# [2] = target: T1, recombinant purified FRα (ECL assay …); assay: ECL sandwich, FRα calibrator; capture 1C6.E12.G8; binder = detection Ab
# [3] = target: T1, recombinant purified FRα (ECL assay …); assay: ECL sandwich, FRα calibrator; capture 30G6.G6.G4.E9; binder = detection Ab
# [4] = target: T1, recombinant purified FRα (ECL assay …); assay: ECL sandwich on FRα, signal to background; capture 6A2.G7; binder = detection Ab
# [5] = target: T1, recombinant purified FRα (ECL assay …); assay: ECL sandwich, FRα calibrator; capture 1A8.G11.E7; binder = detection Ab
# [6] = target: T1, recombinant purified FRα (ECL assay …); assay: ECL sandwich on FRα, signal to background; capture 30G6.G6.G4.E9; binder = detection Ab
# [7] = target: T1, recombinant purified FRα (ECL assay …); assay: ECL sandwich, FRα calibrator; capture 24H8.D3; binder = detection Ab
# [8] = target: T1, recombinant purified FRα (ECL assay …); assay: ECL sandwich, FRα calibrator; capture 26A9.C4; binder = detection Ab
# [9] = target: T1, recombinant purified FRα (ECL assay …); assay: ECL sandwich, FRα calibrator; capture 6A2.G7; binder = detection Ab
# [10] = target: T1, recombinant purified FRα (ECL assay …); assay: ECL sandwich, FRα calibrator; capture 19D4.B7; binder = detection Ab
# [11] = target: T1, recombinant purified FRα (ECL assay …); assay: ECL sandwich, FRα calibrator; capture 28H12.G9; binder = detection Ab
# [12] = target: T1, recombinant purified FRα (ECL assay …); assay: ECL sandwich on FRα, signal to background; capture 19D4.B7; binder = detection Ab
# [13] = target: T1, recombinant purified FRα (ECL assay …); assay: ECL sandwich on FRα, signal to background; capture 19D2.G9; binder = detection Ab
# [14] = target: T1, recombinant purified FRα (ECL assay …); assay: ECL sandwich, FRα calibrator; capture 5C12.H8; binder = detection Ab
# [15] = target: T1, recombinant purified FRα (ECL assay …); assay: ECL sandwich on FRα, signal to background; capture 1A8.G11.E7; binder = detection Ab
# [16] = target: T1, recombinant purified FRα (ECL assay …); assay: ECL sandwich on FRα, signal to background; capture 24H8.F3; binder = detection Ab
# [17] = target: T1, recombinant purified FRα (ECL assay …); assay: ECL sandwich, FRα calibrator; capture 24H8.F3; binder = detection Ab
# [18] = target: T2, human folate receptor gamma (FRγ), recombinant, C-terminal 6xHis (human, UniProt P41439 23-245, limits assumed); assay: direct ELISA, plates coated with 1 µg/mL FR isoform, dilution series of culture supernatant
# T2 construct: Transiently expressed in 293F cells and purified; coated on ELISA plates
# [19] = target: T3, human folate receptor beta (FRβ), recombinant, C-terminal 6xHis (human, UniProt P14207 17-230, limits assumed); assay: as above
# T3 construct: Transiently expressed in 293F cells and purified; coated on ELISA plates
# [20] = target: T1, recombinant purified FRα (ECL assay …); assay: ECL sandwich on FRα, signal to background; capture 28H12.G9; binder = detection Ab
# [21] = target: T1, recombinant purified FRα (ECL assay …); assay: ECL sandwich on FRα, signal to background; capture 24H8.D3; binder = detection Ab
# [22] = target: T1, recombinant purified FRα (ECL assay …); assay: ECL sandwich, FRα calibrator; capture 19D2.G9; binder = detection Ab
# [23] = target: T1, recombinant purified FRα (ECL assay …); assay: ECL sandwich on FRα, signal to background; capture 2F11.F8; binder = detection Ab
# [24] = target: T1, recombinant purified FRα (ECL assay …); assay: ECL sandwich on FRα, signal to background; capture 1D2.G8.G10; binder = detection Ab
# [25] = target: T1, recombinant purified FRα (ECL assay …); assay: ECL sandwich on FRα, signal to background; capture 5C12.H8; binder = detection Ab
# [26] = target: T1, recombinant purified FRα (ECL assay …); assay: ECL sandwich, FRα calibrator; capture 2F11.F8; binder = detection Ab
# [27] = target: T1, recombinant purified FRα (ECL assay …); assay: ECL sandwich, FRα calibrator; capture 1D2.G8.G10; binder = detection Ab
# [28] = target: T1, recombinant purified FRα (ECL assay …); assay: ECL sandwich on FRα, signal to background; capture 26A9.C4; binder = detection Ab
# T3 sequence (P14207 other isoform, or with tags, fused parts or gaps limits assumed): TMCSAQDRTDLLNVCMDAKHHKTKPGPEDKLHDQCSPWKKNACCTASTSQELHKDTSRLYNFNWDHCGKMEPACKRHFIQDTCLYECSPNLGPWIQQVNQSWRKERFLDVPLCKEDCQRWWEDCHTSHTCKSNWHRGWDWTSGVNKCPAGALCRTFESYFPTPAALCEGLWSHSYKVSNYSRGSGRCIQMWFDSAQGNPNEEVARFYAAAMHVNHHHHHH
# T2 sequence (P41439 other isoform, or with tags, fused parts or gaps limits assumed): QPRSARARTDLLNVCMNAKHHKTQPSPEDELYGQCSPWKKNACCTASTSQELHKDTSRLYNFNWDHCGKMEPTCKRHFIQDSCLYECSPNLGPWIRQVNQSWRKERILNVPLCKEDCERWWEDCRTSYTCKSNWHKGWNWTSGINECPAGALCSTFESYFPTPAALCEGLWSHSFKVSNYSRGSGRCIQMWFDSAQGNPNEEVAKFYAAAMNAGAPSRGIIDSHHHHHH
# T1 sequence (P15328 25-234 limits assumed): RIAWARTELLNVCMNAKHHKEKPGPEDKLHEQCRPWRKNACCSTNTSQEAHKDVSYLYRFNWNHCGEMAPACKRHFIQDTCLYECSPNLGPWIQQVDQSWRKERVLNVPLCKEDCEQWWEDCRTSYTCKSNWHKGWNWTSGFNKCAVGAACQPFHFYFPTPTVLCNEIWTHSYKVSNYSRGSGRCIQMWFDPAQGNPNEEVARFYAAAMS
binder,measurement,setting,value
B1,Average of S/B,[1],1
same,Specific signal at 500 pg/mL,[2],59
same,Specific signal at 500 pg/mL,[3],20300
same,Average of S/B,[4],38
same,Specific signal at 500 pg/mL,[5],71
same,Average of S/B,[6],273
same,Specific signal at 500 pg/mL,[7],69
same,Specific signal at 500 pg/mL,[8],81
same,Specific signal at 500 pg/mL,[9],1930
same,Specific signal at 500 pg/mL,[10],40500
same,Specific signal at 500 pg/mL,[11],97
same,Average of S/B,[12],332
same,Average of S/B,[13],2
same,Specific signal at 500 pg/mL,[14],69
same,Average of S/B,[15],1
same,Average of S/B,[16],1
same,Specific signal at 500 pg/mL,[17],88
same,binding result,[18],no binding
same,binding result,[19],no binding
same,Average of S/B,[20],1
same,Average of S/B,[21],1
same,Specific signal at 500 pg/mL,[22],110
same,Average of S/B,[23],1
same,Average of S/B,[24],1
same,Average of S/B,[25],1
same,Specific signal at 500 pg/mL,[26],64
same,Specific signal at 500 pg/mL,[27],52
same,Average of S/B,[28],1
B2,Average of S/B,[1],1
same,Specific signal at 500 pg/mL,[2],64
same,Specific signal at 500 pg/mL,[3],28300
same,Average of S/B,[4],27
same,Specific signal at 500 pg/mL,[5],139
same,Average of S/B,[6],501
same,Specific signal at 500 pg/mL,[7],158
same,Specific signal at 500 pg/mL,[8],72
same,Specific signal at 500 pg/mL,[9],1870
same,Specific signal at 500 pg/mL,[10],33600
same,Specific signal at 500 pg/mL,[11],85
same,Average of S/B,[12],327
same,Average of S/B,[13],4
same,Specific signal at 500 pg/mL,[14],70
same,Average of S/B,[15],2
same,Average of S/B,[16],1
same,Specific signal at 500 pg/mL,[17],104
same,binding result,[18],no binding
same,binding result,[19],no binding
same,Average of S/B,[20],2
same,Average of S/B,[21],2
same,Specific signal at 500 pg/mL,[22],242
same,Average of S/B,[23],1
same,Average of S/B,[24],1
same,Average of S/B,[25],2
same,Specific signal at 500 pg/mL,[26],61
same,Specific signal at 500 pg/mL,[27],64
same,Average of S/B,[28],1
B3,Average of S/B,[1],1
same,Specific signal at 500 pg/mL,[2],75
same,Specific signal at 500 pg/mL,[3],17900
same,Average of S/B,[4],27
same,Specific signal at 500 pg/mL,[5],67
same,Average of S/B,[6],244
same,Specific signal at 500 pg/mL,[7],84
same,Specific signal at 500 pg/mL,[8],80
same,Specific signal at 500 pg/mL,[9],1840
same,Specific signal at 500 pg/mL,[10],41400
same,Specific signal at 500 pg/mL,[11],83
same,Average of S/B,[12],310
same,Average of S/B,[13],2
same,Specific signal at 500 pg/mL,[14],76
same,Average of S/B,[15],1
same,Average of S/B,[16],1
same,Specific signal at 500 pg/mL,[17],87
same,binding result,[18],no binding
same,binding result,[19],no binding
same,Average of S/B,[20],1
same,Average of S/B,[21],1
same,Specific signal at 500 pg/mL,[22],106
same,Average of S/B,[23],1
same,Average of S/B,[24],1
same,Average of S/B,[25],1
same,Specific signal at 500 pg/mL,[26],60
same,Specific signal at 500 pg/mL,[27],64
same,Average of S/B,[28],1

# — patent US20180148504A1 (EISAI R AND D MANAGEMENT, published 2018)
